Experimental data taken from patent US20050070001A1, “Xylosyltransferase and isoforms thereof” (priority 1999, published 2005).

How the values were obtained:
recombinant XT-I = molecular target: T1, recombinant XT-I (Homo sapiens, UniProt Q86Y38); experiment: XT activity assay of recombinant XT-I expressed in CHO-K1 cells with different acceptors and with heparin; assay type: biochemical; conditions: for XT Activitiy pCG227-XT: recombinant XT-I from CHO-K1 cells, immunoprecipitated on beads, named acceptor, without heparin, n.d. = not detected (detection limit 20 μU/l)
T1 construct: polyhistidine leader of vector pcDNA4/HisMax-TOPO (own knowledge of the vector); made in house; host or cells: CHO-K1, transient transfection with pCG227-XT-I
T1 sequence (Q86Y38 148-959): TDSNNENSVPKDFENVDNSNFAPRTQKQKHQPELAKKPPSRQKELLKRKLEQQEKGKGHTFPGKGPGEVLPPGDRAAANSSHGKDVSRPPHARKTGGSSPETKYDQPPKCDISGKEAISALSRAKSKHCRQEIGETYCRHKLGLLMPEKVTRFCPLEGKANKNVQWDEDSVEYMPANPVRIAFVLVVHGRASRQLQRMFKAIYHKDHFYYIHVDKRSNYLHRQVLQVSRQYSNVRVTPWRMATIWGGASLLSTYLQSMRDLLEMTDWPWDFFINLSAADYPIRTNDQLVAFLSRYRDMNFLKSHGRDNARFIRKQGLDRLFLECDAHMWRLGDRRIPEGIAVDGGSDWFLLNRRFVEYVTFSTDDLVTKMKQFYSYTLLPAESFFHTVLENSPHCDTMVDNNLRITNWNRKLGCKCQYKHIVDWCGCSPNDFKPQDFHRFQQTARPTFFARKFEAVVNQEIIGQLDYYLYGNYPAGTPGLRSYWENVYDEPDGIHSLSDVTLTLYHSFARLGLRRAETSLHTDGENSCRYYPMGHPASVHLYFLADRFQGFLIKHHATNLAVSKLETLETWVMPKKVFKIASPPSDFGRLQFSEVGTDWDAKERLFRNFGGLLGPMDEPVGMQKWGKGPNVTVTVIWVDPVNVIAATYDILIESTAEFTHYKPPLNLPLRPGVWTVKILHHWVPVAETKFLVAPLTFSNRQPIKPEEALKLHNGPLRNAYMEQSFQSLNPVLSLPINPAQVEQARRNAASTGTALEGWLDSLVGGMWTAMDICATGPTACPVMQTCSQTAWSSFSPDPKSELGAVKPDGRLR
From the text: The degenerate primers PFF-sense and Lysc-inv1 which were designed upon the amino acid sequence of proteolytic cleaved peptides of human XT-I were used in a PCR reaction with first strand cDNA of placenta poly(A)^+ mRNA as template. […] To clone the complete coding sequence of the novel cDNA, the RACE strategy was employed. The cDNA finally obtained was 3608 bp (FIG. 8A) and contained a single open reading frame encoding a protein of 865 amino acids with a molecular mass of 97.000. The 3′-untranslated region is 850 bp and a 5′-untranslated region of 149 bp was identified with an in-frame stop codon upstream of the ATG codon. […] No detectable XT activity was recovered by the affinity purification from a control transfection sample. The substrate specificity of the recombinant XT-I was similar to that of the XT-I isolated from human body fluids and cell culture supernatants.
Determination of XT activity. Determination of XT activity is based on the incorporation of [14C]-D-xylose into the recombinant bikunin according to a previously described method (Brinkmann et al., 1997, J. Biol. Chem., 272, 11171-11175). For analysis of the substrate specificity of the recombinant xylosyltransferases synthetic peptides containing the XT recognition sequence were used as acceptor. The reaction mixture for the assay contained, in a total volume of 100 μl: 50 μl of XT solution, 25 mM 4-morpholineethanesulfonic acid (pH 6.5), 25 mM KCl, 5 mM KF, 5 MM MgCl2, 5 mM MnCl2, 1.0 μM UDP-[^14C]-D-xylose, and 1.5 μM of the synthetic peptides. After incubation for 75 min at 37° C., the reaction mixtures were placed on discs (25 mm diameter) of Immobilon-AV membrane, which immobilizes even small peptides by covalent links (Pfund & Bourdage, 1990, Mol. Immunol. 27, 495-502), and allowed to dry. It was then washed for 10 min with 10% trichloroacetic acid and three times with 5% trichloroacetic acid solution. Incorporated radioactivity was determined by liquid scintillation counting.
Transfection and transient expression of XT. For construction of a eukaryotic expression vector a DNA fragment including the known coding sequence of XT-I cDNA was amplified by PCR using XT_Exp1L 5′-[…]-3′ and XT_Exp3U 5′-[…]-3′ as primers and placenta first-strand cDNA (Clontech) as template. The 2450 bp fragment obtained was cloned into the vector pcDNA4/HisMax-TOPO (Invitrogen) resulting in the fusion of XT-I to the Xpress epitope. The plasmid pCG227-XT-I was then transiently transfected into CHO-K1 cells. The coding region of the XT-II cDNA was amplified by PCR using the primers AB_Exp9U 5′-AAAGGAAGGCAGAGGAAGC-3′ and AB_Exp3L 5′-ACCCCTCCACTGT-CTGTAAG-3′ and placenta first-strand cDNA as template. The obtained 2440 bp DNA fragment was cloned into the expression vector pcDNA4/HisMax-TOPO resulting in the fusion of XT-II to the aminoterminal Xpress epitope. The plasmid termed pCG226-XT-II was transiently transfected into CHO-K1 cells. 2×10^5 cells precultured for 1 day in a 35 mm diameter cell culture dish were transfected with 2 μg of plasmid DNA and 6 μl of Fugene 6 transfection reagent (Roche, Mannheim, Germany). For determination of transfection efficiency CHO-K1 cells were transfected with 2 μg of the control plasmid pcDNA4/HisMax-TOPO-lacZ. 48 h after transfection the cell culture medium was harvested. Protein G agarose beads (Sigma, Deisenhofen, Germany) and mouse anti-Xpress monoclonal antibody (Invitrogen) were added to the cell culture supernatant and incubated at 4° C. for 1 h. […]

XT [1] = experiment: Effect of protamine chloride added to the XT assay solution; assay type: biochemical, human
From the text: UDP-D-xylose: proteoglycan core protein β-D-xylosyltransferase can be isolated and purified from JAR choriocarcinoma cell culture. The isolated protein according to the invention is a single stranded polypeptide with a molecular weight of 120.000. The protein was enzymatically cleaved and eleven peptide fragments were sequenced by Edman degradation (see Examples). XT is present only in very small amounts in animal tissues but unlike other glycosyltransferases, more than 90% of XT is enriched in the medium of cultured cells. The highest secretion of XT activity was measured in JAR choriocarcinoma cell culture, in which sternal cartilage chondrocytes and 21 different human cell lines were examined. To produce a highly enriched XT solution for the isolation of XT, JAR choriocarcinoma cells were adapted to hollow fiber culture conditions using a novel bioreactor (TECNOMOUSE) and Ultradoma-PF medium without serum addition as nutrient. For purification of XT a combination of classic separation methods and new affinity matrices was employed. Therefore, a heparin matrix was used as an affinity ligand for the XT. […]
Determination of XT activity. […] Incorporated radioactivity was determined by liquid scintillation counting.

XT [2] = conditions: cited from earlier work
[3] = Storage stability of purified XT enzyme activity; assay type: physicochemical; conditions: purified XT after protamine affinity chromatography, stored at −75° C.
Description: Step 4: Affinity chromatography on protamine chloride The product of step 3 was desalted and concentrated using dia- and ultrafiltration. […] Additional proteins were eluted with buffer A containing low NaCl concentrations. Enzyme activity was eluted at approximately 0.15 M NaCl (FIG. 1C). The enzyme activity was stable for at least 6 months at −75° C.
Step 4: Affinity chromatography on protanine chloride—XT-containing solution from step 3 was desalted as described above and concentrated to 5 ml by ultrafiltration with YM1 cellulose membranes. The ultrafiltration product was passed through a 0.2 μm filter. 100 μl of the filtrate was loaded onto a protamine chloride—POROS column (4.6×50 mm) equilibrated with buffer A. The flow rate was 10 ml/min. The column was washed with 10.0 ml of buffer A, and the adsorbed fraction was eluted with the same buffer containing NaCl by a stepwise increase of the NaCl concentration: 6.6 ml buffer A/0.04 M NaCl; 6.6 ml buffer A/0,06 M NaCl; 6.6 ml buffer A/0.23 M NaCl followed by a linear gradient of 0.23-1.20 M NaCl (4.2 ml) in buffer A. Fractions of 6.0 ml were collected, assayed for XT activity and evaluated by SDS-PAGE. Cyclic chromatography was repeated 50 times. The purified enzyme was collected, concentrated to 1.0 ml using ultrafiltration techniques and stored at −75° C.

With heparin the “inhibition of enzyme activity of recombinantly expressed XT-I” value (recombinant XT-I; addition of 250 U of heparin) was “completely inhibited”.

In the case of “SENEGSGMAEQK [L-APLP2 peptide SENEGSGMAEQK, synthetic L-APLP2 homologous peptide used as XT acceptor]”, the “XT Activitiy pCG227-XT” value (recombinant XT-I) is reported as 515 μU/l.

With protamine chloride the “effect on XT activity” value (XT [1]) was “increased XT activity”.

In the case of “TENEGSGLTNIK [L-APP peptide TENEGSGLTNIK, synthetic L-APP homologous peptide used as XT acceptor]”, the “XT Activitiy pCG227-XT” value (recombinant XT-I) is reported as 492 μU/l.

With “QEEGSGGGGQK [Bikunin peptide QEEGSGGGGQK, synthetic bikunin homologous peptide used as XT acceptor]” the “XT Activitiy pCG227-XT” value (recombinant XT-I) was 463 μU/l.

B1: Recombinant bikunin: recombinant bikunin, the inhibitory component of human inter-α-trypsin inhibitor; XT acceptor protein (protein, UniProt P02760 206-352, looked up)
Inter-alpha-trypsin inhibitor …: AVLPQEEEGSGGGQLVTEVTKKEDSCQLGYSAGPCMGMTSRYFYNGTSMACETFQYGGCMGNGNNFVTEKECLQTCRTVAACNLPIVRGPCRAFIQLWAFDAVKGKCVLFPYGGCQGNGNKFYSEKECREYCGVPGDGDEELLRFSN
modifications: Inter-alpha-trypsin inhibitor light chain recombinant
notes: XT acceptor protein
For B1, the Km (XT [2]; enriched XT preparation from conditioned cell culture supernatant of human chondrocytes, read-out: Michaelis-Menten (Km) constant for in vitro xylosylation) is listed as 22 µM, the “decrease of Km in comparison to deglycosylated core protein from bovine cartilage” value (XT [2]; enriched XT preparation from human chondrocytes) is listed as 9 fold and the “XT Activitiy pCG227-XT” value (recombinant XT-I) is listed as 2854 μU/l.

B2: UDP-D-xylose:proteoglycan core protein β-D-xylosyltransferase (protein, UniProt Q86Y38 1-959, looked up)
Xylosyltransferase 1: MVAAPCARRLARRSHSALLAALTVLLLQTLVVWNFSSLDSGAGERRGGAAVGGGEQPPPAPAPRRERRDLPAEPAAARGGGGGGGGGGGGRGPQARARGGGPGEPRGQQPASRGALPARALDPHPSPLITLETQDGYFSHRPKEKVRTDSNNENSVPKDFENVDNSNFAPRTQKQKHQPELAKKPPSRQKELLKRKLEQQEKGKGHTFPGKGPGEVLPPGDRAAANSSHGKDVSRPPHARKTGGSSPETKYDQPPKCDISGKEAISALSRAKSKHCRQEIGETYCRHKLGLLMPEKVTRFCPLEGKANKNVQWDEDSVEYMPANPVRIAFVLVVHGRASRQLQRMFKAIYHKDHFYYIHVDKRSNYLHRQVLQVSRQYSNVRVTPWRMATIWGGASLLSTYLQSMRDLLEMTDWPWDFFINLSAADYPIRTNDQLVAFLSRYRDMNFLKSHGRDNARFIRKQGLDRLFLECDAHMWRLGDRRIPEGIAVDGGSDWFLLNRRFVEYVTFSTDDLVTKMKQFYSYTLLPAESFFHTVLENSPHCDTMVDNNLRITNWNRKLGCKCQYKHIVDWCGCSPNDFKPQDFHRFQQTARPTFFARKFEAVVNQEIIGQLDYYLYGNYPAGTPGLRSYWENVYDEPDGIHSLSDVTLTLYHSFARLGLRRAETSLHTDGENSCRYYPMGHPASVHLYFLADRFQGFLIKHHATNLAVSKLETLETWVMPKKVFKIASPPSDFGRLQFSEVGTDWDAKERLFRNFGGLLGPMDEPVGMQKWGKGPNVTVTVIWVDPVNVIAATYDILIESTAEFTHYKPPLNLPLRPGVWTVKILHHWVPVAETKFLVAPLTFSNRQPIKPEEALKLHNGPLRNAYMEQSFQSLNPVLSLPINPAQVEQARRNAASTGTALEGWLDSLVGGMWTAMDICATGPTACPVMQTCSQTAWSSFSPDPKSELGAVKPDGRLR
notes: enzyme (EC 2.4.2.26) purified from JAR choriocarcinoma cell culture supernatant, MW 120.000
With B2 the “time for which enzyme activity was stable” value [3] was “at least 6 months”.
